Measured values reported in publication PMC5566480.
Changes are numbered by the printed parent chain. Names and notes keep the numbering of the source.

Target: Recombinant human Toll-like receptor 2 (rTLR2), O60603
Assay: ELISA
Details: chain shown with the change;; parent: est. 0.37; read off a plot

Sequence of Recombinant human Toll-like receptor 2 (rTLR2), O60603 (O60603 21-784): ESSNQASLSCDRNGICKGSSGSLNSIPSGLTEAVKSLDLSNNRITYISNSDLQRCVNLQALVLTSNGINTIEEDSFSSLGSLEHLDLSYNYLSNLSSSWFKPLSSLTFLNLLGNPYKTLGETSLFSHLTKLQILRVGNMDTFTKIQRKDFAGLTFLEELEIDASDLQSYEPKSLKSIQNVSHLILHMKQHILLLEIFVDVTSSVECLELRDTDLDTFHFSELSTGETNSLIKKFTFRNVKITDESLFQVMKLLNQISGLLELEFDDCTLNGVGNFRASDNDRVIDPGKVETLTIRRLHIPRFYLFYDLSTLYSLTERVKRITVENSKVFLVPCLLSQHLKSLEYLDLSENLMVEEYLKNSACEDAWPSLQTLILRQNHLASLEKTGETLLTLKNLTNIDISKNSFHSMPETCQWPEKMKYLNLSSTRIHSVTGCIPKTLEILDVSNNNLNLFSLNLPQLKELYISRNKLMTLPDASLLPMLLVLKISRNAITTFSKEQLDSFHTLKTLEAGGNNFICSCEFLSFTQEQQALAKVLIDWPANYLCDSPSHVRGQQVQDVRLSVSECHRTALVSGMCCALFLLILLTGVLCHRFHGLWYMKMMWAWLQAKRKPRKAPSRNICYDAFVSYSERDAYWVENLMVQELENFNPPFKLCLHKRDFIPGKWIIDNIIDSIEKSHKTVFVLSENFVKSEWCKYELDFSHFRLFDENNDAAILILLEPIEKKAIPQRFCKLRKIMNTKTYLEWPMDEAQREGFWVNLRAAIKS

B1: Recombinant LipL32 wild type, mature form (rLipL32; 21-272) V35S (protein)
chain: GAFGGLPSLKSSFSLSESTVPGTNETVKTFLPYGSVINYYGYVKPGQAPDGLVDGNKKAYYLYVWIPAVIAEMGVRMISPTGEIGEPGDGDLVSDAFKAATPEEKSMPHWFDTWIRVERMSAIMPDQIAKAAKAKPVQKLDDDDDGDDTYKEERHNKYNSLTRIKIPNPPKSFDDLKNIDTKKLLVRGLYRISFTTYKPGEVKGSFVASVGLLFPPGIPGVSPLIHSNPEELQKQAIAAEESLKKAASDATK
- response: 0.25 OD450nm

B2: Recombinant LipL32 wild type, mature form (rLipL32; 21-272) L36S (protein)
chain: B1 chain with S14V, L15S
- response: 0.23 OD450nm

B3: Recombinant LipL32 wild type, mature form (rLipL32; 21-272) F34S (protein)
chain: B1 chain with F13S, S14V
- response: 0.31 OD450nm
